Laboratory results taken from patent US20250327097A1, “ORGANISMS PRODUCING LESS CROTONIC ACID” (Global Bioenergies, priority 2021, published 2025).
Numbering of substitutions follows the chain as printed. Names may count otherwise.

B1: E126K-H141Q-I283T-N285P-N287T-Q290E-S322T-N388M-K394R-C430A-L432F-L434W-S436N-dG462 (protein)
chain: MFLKSLREQINLLKRQGDLRIINRPVDSYLEAAAIIRRSTETKAPVPLMTNIKGYPGCSIVGGLAALSSNPEYPLSRVAMSLGLSTTASAQSIVQYLIDGLKKTPYLPVEIDSNSAPCKQNILRGKDASLAHFPIPQVHQQDGNRYVNTWGVFIVESPDGQWCNWSIQRVQYLNDRQMIALVFPSQHISDIWEEWVKIGKPMPYALVQGCEPIVPYIAGLPLLERNVNEAEYIGALYGKGIEVVKCETHDLRVPASSEVVIEGYFAITREGVEGPFGEFAGYTPPETSLEPILSITAISWQDDPIWPVVAEGKPVDEYHTCTGIGDAAAIQNVLLTANLPVSFVWVPLYSACHLMIVSINRHWRQTHPDLTSEQLTKKVGDVIHQTRMSIKLPRIVVLDDDVDPADTESLLWALATRIHPERKRYFYESAIFPWLNCYSEEERHNRKGKRVIIDALLPENHGAISSFDYAYPDDIKQRVLMHWETDFSHD
B2: I283T-N285P-N287T-Q290E-S322T-N388M-K394R-C430V-L432F-L434W-S436N-dG462 (protein)
chain: B1 chain with K126E, Q141H, A430V
B3: E224Q-I283T-N285P-N287T-Q290E-S322T-N388M-K394R-C430A-L432F-L434W-S436N-dG462 (protein)
chain: B1 chain with K126E, Q141H, E224Q
B4: I283T-N285P-N287T-L289R-Q290E-S322T-N388M-K394R-C430A-L432F-L434W-S436N-dG462 (protein)
chain: B1 chain with K126E, Q141H, L289R
B5: I283T-N285P-N287T-Q290E-S322T-N388M-K394R-C430A-L432F-L434W-S436N-dG462-A463F (protein)
chain: B1 chain with K126E, Q141H, A463F
B6: L222V-I283T-N285P-N287T-Q290E-S322T-N388M-K394R-C430A-L432F-L434W-S436N-dG462 (protein)
chain: B1 chain with K126E, Q141H, L222V
B7: I283T-N285P-N287T-Q290E-S322T-N388M-K394R-C430A-L432F-L434W-S436N-dG462-Y471F (protein)
chain: B1 chain with K126E, Q141H, Y471F
B8: I35V-Q140L-I283T-N285P-N287T-Q290E-S322T-N388M-K394R-C430A-L432F-L434W-S436N-dG462 (protein)
chain: B1 chain with I35V, K126E, Q140L, Q141H
B9: I283T-N285P-N287T-Q290E-S322T-N388M-K394R-C430A-L432F-L434W-S436N-H444R-dG462 (protein)
chain: B1 chain with K126E, Q141H, H444R
B10: I283T-N285P-N287T-Q290E-S322T-R361K-N388M-K394R-C430A-L432F-L434W-S436N-dG462 (protein)
chain: B1 chain with K126E, Q141H, R361K
B11: N287Q-N388M-K394R-C430N-L432F-L434W-S436N (protein)
chain: B1 chain with K126E, Q141H, T283I, P285N, T287Q, E290Q, T322S, A430N
B12: I283T-N285P-E286A-N287T-Q290E-S322T-N388M-K394R-C430A-L432F-L434W-S436N-dG462 (protein)
chain: B1 chain with K126E, Q141H, E286A
B13: I283T-N285P-N287T-Q290E-S322T-N388M-K394R-C430A-L432F-L434W-S436N-dG462-A463V (protein)
chain: B1 chain with K126E, Q141H, A463V
B14: L223Y-I283T-N285P-N287T-Q290E-S322T-N388M-K394R-C430A-L432F-L434W-S436N-dG462 (protein)
chain: B1 chain with K126E, Q141H, L223Y
B15: I283T-N285P-N287T-Q290E-S322T-N388M-K394R-C430A-L432F-L434W-S436N-H444F-dG462 (protein)
chain: B1 chain with K126E, Q141H, H444F
B16: I283T-N285P-N287T-Q290E-S322T-Q365T-N388M-K394R-C430A-L432F-L434W-S436N-dG462 (protein)
chain: B1 chain with K126E, Q141H, Q365T
B17: I283T-N285P-N287T-L289C-Q290E-S322T-N388M-K394R-C430A-L432F-L434W-S436N-dG462 (protein)
chain: B1 chain with K126E, Q141H, L289C
B18: I283T-N285P-N287T-Q290E-S322T-M355V-N388M-K394R-C430A-L432F-L434W-S436N-dG462 (protein)
chain: B1 chain with K126E, Q141H, M355V
B19: I283T-N285P-N287T-Q290E-S322T-N388M-K394R-C430A-L432F-L434W-S436N-N460G-dG462 (protein)
chain: B1 chain with K126E, Q141H, N460G
B20: I283T-N285P-N287T-Q290E-S322T-N388M-K394R-C430A-L432F-L434W-S436N-H444T-dG462 (protein)
chain: B1 chain with K126E, Q141H, H444T
B21: E224P-I283T-N285P-N287T-Q290E-S322T-N388M-K394R-C430A-L432F-L434W-S436N-dG462 (protein)
chain: B1 chain with K126E, Q141H, E224P
B22: I283T-N285P-N287T-Q290E-S322T-N388M-K394R-K423G-C430A-L432F-L434W-S436N-dG462 (protein)
chain: B1 chain with K126E, Q141H, K423G
B23: N287T-N388M-K394R-C430N-L432F-L434W-S436N (protein)
chain: B1 chain with K126E, Q141H, T283I, P285N, E290Q, T322S, A430N
B24: N287R-N388M-K394R-C430N-L432F-L434W-S436N (protein)
chain: B1 chain with K126E, Q141H, T283I, P285N, T287R, E290Q, T322S, A430N
B25: I283T-N285P-N287T-Q290E-S322T-N388M-K394R-R422D-C430A-L432F-L434W-S436N-dG462 (protein)
chain: B1 chain with K126E, Q141H, R422D
B26: P184S-I283T-N285P-N287T-Q290E-S322T-N388M-K394R-C430A-L432F-L434W-S436N-dG462 (protein)
chain: B1 chain with K126E, Q141H, P184S
B27: I283L-N285P-N287T-Q290E-S322T-N388M-K394R-C430A-L432F-L434W-S436N-dG462 (protein)
chain: B1 chain with K126E, Q141H, T283L
B28: I283T-N285P-N287T-Q290E-S322T-M355C-N388M-K394R-C430A-L432F-L434W-S436N-dG462 (protein)
chain: B1 chain with K126E, Q141H, M355C
B29: I283T-N285P-N287T-Q290E-S322T-N388M-K394R-C430A-L432F-L434W-S436N-dG462-A470S (protein)
chain: B1 chain with K126E, Q141H, A470S
B30: V227L-I283T-N285P-N287T-Q290E-S322T-N388M-K394R-C430A-L432F-L434W-S436N-dG462 (protein)
chain: B1 chain with K126E, Q141H, V227L
B31: V227Y-I283T-N285P-N287T-Q290E-S322T-N388M-K394R-C430A-L432F-L434W-S436N-dG462 (protein)
chain: B1 chain with K126E, Q141H, V227Y
B32: I283T-N285P-N287T-Q290E-S322T-M355T-N388M-K394R-C430A-L432F-L434W-S436N-dG462 (protein)
chain: B1 chain with K126E, Q141H, M355T
B33: I283T-N285P-N287T-L289W-Q290E-S322T-N388M-K394R-C430A-L432F-L434W-S436N-dG462 (protein)
chain: B1 chain with K126E, Q141H, L289W

System: 3-methylcrotonic acid
Assay type: biochemical, Yersinia frederiksenii
Parameters: key: “+” representing a low increase in activity; “++++” representing a high increase in activity

| Molecule | Activity relative to WT |
| --- | --- |
| B1 | ++++ |
| B2 | ++++ |
| B3 | ++++ |
| B4 | ++++ |
| B5 | ++++ |
| B6 | ++++ |
| B7 | ++++ |
| B8 | ++++ |
| B9 | ++++ |
| B10 | ++++ |
| B11 | + |
| B12 | ++++ |
| B13 | ++++ |
| B14 | ++++ |
| B15 | ++++ |
| B16 | ++++ |
| B17 | ++++ |

| Molecule | Activity relative to WT |
| --- | --- |
| B18 | ++++ |
| B19 | ++++ |
| B20 | ++++ |
| B21 | ++++ |
| B22 | ++++ |
| B23 | + |
| B24 | + |
| B25 | ++++ |
| B26 | ++++ |
| B27 | ++++ |
| B28 | ++++ |
| B29 | ++++ |
| B30 | ++++ |
| B31 | ++++ |
| B32 | ++++ |
| B33 | ++++ |
